Assay [1] deals with T1, huCD122-HIS (ARCO Bio | Cat No. CD2-H5221) (human, UniProt P14784 27-239).
T1 construct: Bought analyte of the BLI assay; also called human CD122; not shown: His tag
T1 sequence (looked up): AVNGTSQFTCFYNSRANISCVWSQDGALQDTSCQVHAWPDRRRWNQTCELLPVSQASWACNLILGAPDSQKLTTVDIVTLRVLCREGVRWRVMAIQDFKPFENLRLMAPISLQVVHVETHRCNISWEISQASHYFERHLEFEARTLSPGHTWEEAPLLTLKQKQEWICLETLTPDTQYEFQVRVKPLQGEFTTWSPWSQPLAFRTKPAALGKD
Description: BLI Octet; reference: parental chimeras (G1, G11). How it is done:
(§1) Based on Bio-Layer Interferometry (BLI), the Octet® BLI system is a fluidics-free instrument platform that enables real-time, label-free analysis for the determination of kinetics, affinity and antibody/protein quantitation. Binding experiments were performed on Octet HTX at 25° C. The analyte used was huCD122-HIS (ARCO Bio | Cat No. CD2-H5221) at a molecular weight of 25.4 kDa. The antibodies were loaded onto Anti-human Fc capture (AHC) sensors. The loaded sensors were dipped into serial dilutions of huCD122-His (Starting at 20 nM, 1:3 dilution, 4 points). Reference sample well (buffer) was used for data analysis. Kinetic constants were calculated using a monovalent (1:1) binding model. The assay buffer used was PBS with 0.1% BSA, […], pH 7.2. The regeneration buffer used was 10 mM Glycine buffer (pH 1.7). The four concentrations of huCD122-His used to determine anti-CD122 antibody binding and dissociation properties were 0.0 nM, 2.2 nM, 6.7 nM, and 20 nM. Sensorgram plots to display antibody binding characteristics were generated. The mouse parental chimera configurations in both IgG1 and IgG4 backbones (M5 IgG1 parental and M5 IgG4 parental) were tested as well as each combination of the humanized 3 HC and 3 LC variants in either an IgG1 or an IgG4 backbone.

The target of assay [2] is T1, huCD122-HIS (ARCO Bio | Cat No. …). The assay can be described thus: BLI Octet, antibody captured on AHC sensor, huCD122-His analyte, 1:1 fit. How it is done: as §1
Assay [3] shares this target. The assay can be described thus: BLI Octet, antibody captured on AHC sensor, huCD122-His analyte, 1:1 fit; second batch. How it is done: as §1

B1: G15 (antibody, human IgG4 S228P, kappa)
heavy: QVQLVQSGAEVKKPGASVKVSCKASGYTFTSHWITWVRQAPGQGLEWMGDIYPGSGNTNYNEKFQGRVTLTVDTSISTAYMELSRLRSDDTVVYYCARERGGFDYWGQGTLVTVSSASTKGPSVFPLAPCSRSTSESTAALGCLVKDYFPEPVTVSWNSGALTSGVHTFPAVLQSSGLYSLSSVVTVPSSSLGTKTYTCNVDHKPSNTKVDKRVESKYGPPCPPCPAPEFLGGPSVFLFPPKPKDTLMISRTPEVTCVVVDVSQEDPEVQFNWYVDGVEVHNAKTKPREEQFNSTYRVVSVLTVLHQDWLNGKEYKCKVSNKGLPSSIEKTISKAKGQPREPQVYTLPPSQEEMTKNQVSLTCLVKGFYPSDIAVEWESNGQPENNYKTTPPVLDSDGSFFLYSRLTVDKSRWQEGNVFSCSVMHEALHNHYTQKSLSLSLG
light: DIQMTQSPSSLSASVGDRVTITCRASQDISNFLNWYQQKPEGTLKLLIYYTSGLHSGVPSRFSGSGSGTDFTLTISSLQPEDVATYYCQQDNNHPYTFGQGTKLEIKRTVAAPSVFIFPPSDEQLKSGTASVVCLLNNFYPREAKVQWKVDNALQSGNSQESVTEQDSKDSTYSLSSTLTLSKADYEKHKVYACEVTHQGLSSPVTKSFNRGEC
notes: Humanized, human IgG4 (S228P), kappa
For B1, the “fold change in KD against the parental chimera” value (from here on “fold change in KD”) in assay [1] was less than 3 fold. Further, in assay [2], the dissociation constant Kd came out at 1.37 nM, the Response was found to be 0.337, the off-rate (koff) is 0.000639 s⁻¹ and the kon stood at 466000 M⁻¹ s⁻¹. Besides, in assay [3], the equilibrium dissociation constant (Kd) was 1.33 nM, the Response stood at 0.312, the off-rate (koff) came to 0.000647 s⁻¹ and the on-rate (kon) was 485000 M⁻¹ s⁻¹.

B2: G5 (antibody, human IgG1, kappa)
heavy: not shown
light: DIQMTQSPSSLSASVGDRVTITCRASQDISNFLNWYQQKPEGTLKLLIYYTSGLHSGVPSRFSGSGSGTDFTLTISSLQPEDVATYYCQQDNNHPYTFGQGTKLEIKRTVAAPSVFIFPPSDEQLKSGTASVVCLLNNFYPREAKVQWKVDNALQSGNSQESVTEQDSKDSTYSLSSTLTLSKADYEKHKVYACEVTHQGLSSPVTKSFNRGEC
notes: Humanized, human IgG1 (G1M17), kappa
As for B2, the “fold change in KD” value in assay [1] was less than 3 fold. Also, in assay [2], the equilibrium dissociation constant (Kd) is 1.18 nM, the Response came to 0.377, the koff turned out to be 0.000581 s⁻¹ and the kon was 494000 M⁻¹ s⁻¹.

B3: G2 (antibody, human IgG1, kappa)
heavy: not shown
light: DIQMTQSPSSLSASVGDRVTITCRASQDISNFLNWYQQKPEGTLKLLIYYTSGLHSGVPSRFSGSGSGTDFTLTISSLQPEDVATYYCQQDNNHPYTFGQGTKLEIKRTVAAPSVFIFPPSDEQLKSGTASVVCLLNNFYPREAKVQWKVDNALQSGNSQESVTEQDSKDSTYSLSSTLTLSKADYEKHKVYACEVTHQGLSSPVTKSFNRGEC
notes: as for B2
For the molecule B3, the “fold change in KD” value in assay [1] is less than 3 fold. Further, in assay [2], the dissociation constant Kd was determined as 0.831 nM, the Response was 0.372, the koff stood at 0.000409 s⁻¹ and the on-rate (kon) turned out to be 492000 M⁻¹ s⁻¹.

B4: G8 (antibody, human IgG1, kappa)
heavy: not shown
light: DIQMTQSPSSLSASVGDRVTITCRASQDISNFLNWYQQKPEGTLKLLIYYTSGLHSGVPSRFSGSGSGTDFTLTISSLQPEDVATYYCQQDNNHPYTFGQGTKLEIKRTVAAPSVFIFPPSDEQLKSGTASVVCLLNNFYPREAKVQWKVDNALQSGNSQESVTEQDSKDSTYSLSSTLTLSKADYEKHKVYACEVTHQGLSSPVTKSFNRGEC
notes: as for B2
Regarding B4, in assay [1], the “fold change in KD” value was less than 3 fold. Besides, in assay [2], the Kd was 0.943 nM, the Response is 0.389, the dissociation rate constant (koff) was 0.000425 s⁻¹ and the association rate constant (kon) came to 450000 M⁻¹ s⁻¹.

B5: G18 (antibody, human IgG4 S228P, kappa)
heavy: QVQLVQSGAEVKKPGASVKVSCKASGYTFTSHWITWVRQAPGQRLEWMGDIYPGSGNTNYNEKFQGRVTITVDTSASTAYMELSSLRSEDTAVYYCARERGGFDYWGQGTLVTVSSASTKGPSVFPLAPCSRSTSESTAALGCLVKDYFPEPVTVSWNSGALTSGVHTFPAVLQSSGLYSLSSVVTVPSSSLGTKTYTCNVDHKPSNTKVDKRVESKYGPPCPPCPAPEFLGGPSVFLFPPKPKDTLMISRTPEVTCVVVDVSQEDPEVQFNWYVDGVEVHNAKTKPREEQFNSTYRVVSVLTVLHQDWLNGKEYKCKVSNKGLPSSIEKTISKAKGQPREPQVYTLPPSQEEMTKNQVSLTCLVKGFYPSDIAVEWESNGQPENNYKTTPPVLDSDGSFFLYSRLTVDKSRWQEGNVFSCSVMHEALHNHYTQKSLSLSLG
light: DIQMTQSPSSLSASVGDRVTITCRASQDISNFLNWYQQKPEGTLKLLIYYTSGLHSGVPSRFSGSGSGTDFTLTISSLQPEDVATYYCQQDNNHPYTFGQGTKLEIKRTVAAPSVFIFPPSDEQLKSGTASVVCLLNNFYPREAKVQWKVDNALQSGNSQESVTEQDSKDSTYSLSSTLTLSKADYEKHKVYACEVTHQGLSSPVTKSFNRGEC
notes: as for B1
Turning to B5, the “fold change in KD” value in assay [1] was less than 3 fold. In assay [2], the dissociation constant Kd was 0.98 nM, the Response worked out at 0.315, the dissociation rate constant (koff) worked out at 0.000453 s⁻¹ and the on-rate constant (kon) amounted to 462000 M⁻¹ s⁻¹.

B6: G12 (antibody, human IgG4 S228P, kappa)
heavy: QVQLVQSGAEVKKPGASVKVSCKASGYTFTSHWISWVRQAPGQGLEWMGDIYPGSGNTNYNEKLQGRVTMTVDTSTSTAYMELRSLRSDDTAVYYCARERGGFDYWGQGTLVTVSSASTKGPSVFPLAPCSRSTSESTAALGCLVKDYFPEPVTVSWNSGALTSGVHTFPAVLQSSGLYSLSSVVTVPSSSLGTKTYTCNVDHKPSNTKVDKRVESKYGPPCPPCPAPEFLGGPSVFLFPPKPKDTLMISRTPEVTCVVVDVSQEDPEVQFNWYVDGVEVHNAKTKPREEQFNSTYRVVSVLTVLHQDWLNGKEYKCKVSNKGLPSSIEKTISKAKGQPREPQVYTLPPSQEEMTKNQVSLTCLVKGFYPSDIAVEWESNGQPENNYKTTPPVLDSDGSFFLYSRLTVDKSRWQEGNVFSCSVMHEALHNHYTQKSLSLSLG
light: DIQMTQSPSSLSASVGDRVTITCRASQDISNFLNWYQQKPEGTLKLLIYYTSGLHSGVPSRFSGSGSGTDFTLTISSLQPEDVATYYCQQDNNHPYTFGQGTKLEIKRTVAAPSVFIFPPSDEQLKSGTASVVCLLNNFYPREAKVQWKVDNALQSGNSQESVTEQDSKDSTYSLSSTLTLSKADYEKHKVYACEVTHQGLSSPVTKSFNRGEC
notes: as for B1
Take B6: the “fold change in KD” value in assay [1] is less than 3 fold. Further, in assay [2], the equilibrium dissociation constant (Kd) turned out to be 1.08 nM, the Response was 0.354, the dissociation rate constant (koff) came out at 0.000488 s⁻¹ and the association rate constant (kon) turned out to be 451000 M⁻¹ s⁻¹. Also, in assay [3], the equilibrium dissociation constant (Kd) turned out to be 1.43 nM, the Response came to 0.334, the koff worked out at 0.000646 s⁻¹ and the on-rate constant (kon) is 452000 M⁻¹ s⁻¹.

B7: G1 (antibody)
heavy: not shown
light: DIQMTQTTSSLSASLGDRVTINCRASQDISNFLNWYQQKPDGTLKLLIYYTSGLHSGVPSRFSGSGSGTDYSLTISNLEEEDIATYFCQQDNNHPYTFGSGTKLEIKRTVAAPSVFIFPPSDEQLKSGTASVVCLLNNFYPREAKVQWKVDNALQSGNSQESVTEQDSKDSTYSLSSTLTLSKADYEKHKVYACEVTHQGLSSPVTKSFNRGEC
notes: Chimeric: mouse parental variable domains in human IgG1 (G1M17 allotype), kappa; also called M5 IgG1 parental; G1 mouse parental IgG1 chimera
For B7, in assay [2], the dissociation constant (Kd) stood at 0.727 nM, the Response stood at 0.381, the koff is 0.0004 s⁻¹ and the kon turned out to be 549000 M⁻¹ s⁻¹.

B8: G11 (antibody, human IgG4 S228P, kappa)
heavy: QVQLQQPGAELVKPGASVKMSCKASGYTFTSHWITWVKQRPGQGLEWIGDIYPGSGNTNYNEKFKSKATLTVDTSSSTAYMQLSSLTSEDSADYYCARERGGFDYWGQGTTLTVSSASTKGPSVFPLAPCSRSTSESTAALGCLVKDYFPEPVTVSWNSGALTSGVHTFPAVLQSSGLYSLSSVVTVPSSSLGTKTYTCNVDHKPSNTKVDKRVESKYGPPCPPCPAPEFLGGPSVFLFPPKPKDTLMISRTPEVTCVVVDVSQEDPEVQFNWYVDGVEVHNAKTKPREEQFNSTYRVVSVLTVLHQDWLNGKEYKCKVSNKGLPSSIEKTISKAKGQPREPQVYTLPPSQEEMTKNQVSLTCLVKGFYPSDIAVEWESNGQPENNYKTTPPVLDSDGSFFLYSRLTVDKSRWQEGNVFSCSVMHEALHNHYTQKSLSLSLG
light: DIQMTQTTSSLSASLGDRVTINCRASQDISNFLNWYQQKPDGTLKLLIYYTSGLHSGVPSRFSGSGSGTDYSLTISNLEEEDIATYFCQQDNNHPYTFGSGTKLEIKRTVAAPSVFIFPPSDEQLKSGTASVVCLLNNFYPREAKVQWKVDNALQSGNSQESVTEQDSKDSTYSLSSTLTLSKADYEKHKVYACEVTHQGLSSPVTKSFNRGEC
notes: Chimeric: mouse parental variable domains in human IgG4 (S228P), kappa; also called M5 IgG4 parental; G11 mouse parental IgG4 chimera
Consider B8, for which, in assay [2], the Kd was 0.795 nM, the Response was found to be 0.326, the dissociation rate constant (koff) turned out to be 0.000423 s⁻¹ and the on-rate constant (kon) was found to be 532000 M⁻¹ s⁻¹. In assay [3], the Kd worked out at 0.866 nM, the Response came to 0.327, the koff amounted to 0.000491 s⁻¹ and the kon was 567000 M⁻¹ s⁻¹.
